Read-outs that look alike come from different tables or passages of the source.
T1: CREB (unmodified) (UniProt P16220 254-327)
T1 construct: also called CREB protein
T1 sequence (looked up): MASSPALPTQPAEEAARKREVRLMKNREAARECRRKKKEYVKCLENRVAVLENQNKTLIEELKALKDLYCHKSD

B1: VBP-C/EBP chimeric protein (other)
chain: ASMTGGQQMGRDPLEEKVFVPDEQKDEKYWTRRKKNNVAAKRSRDARRLKENQTQQKVLELTSDNDRLRKRVEQLSRELDTLRGIFRQLPESSLVKAMGNCA
B2: c-Jun (unmodified) (other, UniProt P05412 241-331, looked up)
chain: PLSPIDMESQERIKAERKRMRNRIAASKCRKRKLERIARLEEKVKTLKAQNSELASTANMLREQVAQLKQKVMNHVNSGCQLMLTQQLQTF
B3: New4hepCREB (CREB with the new 4heptad extension, asparagine changed to leucine) (designed binder)
chain: MDYKDDDDKHMASMTGGQQMGRDPDLEQRAEELARENEELEKEAEELEQELAELENRVAVLENQNKTLIEELKALKDLYCHKSD
notes: also called New4heptadCREB; CMV500-4heptadCREB
B4: 3heptad-F with the DP- N-terminal cap (designed binder)
chain: ASMTGGQQMGRDPLARENEELEKEAEELEQENAELEQEVLELESRNDRLRKEVEQLERELDTLRGIFRQLPESSLVKAMGNCA
notes: Built from the statement that DP- replaces DP-GGG; also called DP- cap
B5: 2heptad-F (designed binder)
chain: ASMTGGQQMGRDPGGGLEKEAEELEQENAELEQEVLELESRNDRLRKEVEQLERELDTLRGIFRQLPESSLVKAMGNCA
B6: AcidMax (Max with a polyglutamic acid extension) (designed binder)
chain: MASMTGGQQMGRDPDEEEDDEEELEELEDSFHSLRDSVPSLQGEKASRAQILDKATEYIQYMRRKNHTHQQDIDDLKRQNALLEQQVRALEKARSSAQLQT
B7: 3heptad-C/EBP (three heptad acidic extension appended onto the C/EBP leucine zipper) (designed binder)
chain: ASMTGGQQMGRDPGGGLARENEELEKEAEELEQENAELEQKVLELTSDNDRLRKRVEQLSRELDTLRGIFRQLPESSLVKAMGNCA
B8: c-Fos (unmodified) (other)
chain: PDKVEQLSPEEEEKRRIRRERNKMAAAKCRNRRRELTDTLQAETDQLEDEKSALQTEIANLLKEKEKLEFILAAHRPACKIP
notes: also called human c-Fos protein
B9: 0heptad-F (F zipper with the basic region deleted) (designed binder)
chain: ASMTGGQQMGRDPGGGTQQEVLELESRNDRLRKEVEQLERELDTLRGIFRQLPESSLVKAMGNCA
notes: Made in E. coli; the initiator methionine is processed off; also called heterodimerizing zipper; 0heptad-F (H)
B10: 0heptadMax (dimerization domain of Max without an acidic extension) (designed binder)
chain: ASMTGGQQMGRDPDLEELEDSFHSLRDSVPSLQGEKASRAQILDKATEYIQYMRRKNHTHQQDIDDLKRQNALLEQQVRALEKARSSAQLQT
notes: domain: dimerization domain; also called OheptadMax
B11: 3heptad-F with the DP-D N-terminal cap (designed binder)
chain: ASMTGGQQMGRDPDLARENEELEKEAEELEQENAELEQEVLELESRNDRLRKEVEQLERELDTLRGIFRQLPESSLVKAMGNCA
notes: Built from the statement that DP-D replaces DP-GGG; also called DP-D cap; DPD cap
B12: C/EBP bZIP domain (GCN4-C/EBP chimeric protein) (other)
chain: SEYQPSLFALNPMGFSPLDGSKSTNENVSASTSTAKPMVGQLIFDKFIKTEEDPGKAKKSVDKNSNEYRVRRERNNIAVRKSRDKAKQRNVETQQKVLELTSDNDRLRKRVEQLSRELDTLRGIFRQLPESSLVKAMGNCA
notes: Made in E. coli; forms a homodimer; also called C/EBP-C/EBP; wild type C/EBP
B13: 4heptad-F (designed binder)
chain: ASMTGGQQMGRDPGGGLEQRAEELARENEELEKEAEELEQENAELEQEVLELESRNDRLRKEVEQLERELDTLRGIFRQLPESSLVKAMGNCA
notes: also called 4heptad-F zipper protein
B14: new4heptadFos (4heptadFos with one asparagine of the acidic region changed to leucine) (designed binder)
chain: ASMTGGQQMGRDPDLEQRAEELARENEELEKEAEELEQELAELEAETDQLEDEKSALQTEIANLLKEKEKLEFILAAHRPACKIP
notes: also called N4heptad-Fos
B15: GBF-C/EBP chimeric protein (other)
chain: PVKDERELKRQKRKQSNRESARRSRLRNEAECEQTQQKVLELTSDNDRLRKRVEQLSRELDTLRGIFRQLPESSLVKAMGNCA
B16: 1heptad-F (designed binder)
chain: ASMTGGQQMGRDPGGGLEQENAELEQEVLELESRNDRLRKEVEQLERELDTLRGIFRQLPESSLVKAMGNCA
B17: 4heptadCREB (CREB with the 4heptad acidic extension appended at the amino terminus) (designed binder)
chain: ASMTGGQQMGRDPDLEQRAEELARENEELEKEAEELEQENAELENRVAVLENQNKTLIEELKALKDLYCHKSD
notes: also called 4hep-CREB

Assays:
[1] = biological target: the molecule itself; assay: CD thermal melt, homodimer, 150 mM KCl, Kd at 25 C
Description: (§1) CD analyses were performed as described in Materials and Methods of D. Krylov et al., 1994, *EMBO J.,* 13:2849–2861. T_m values were calculated as described in D, Krylov et al., 1994, Ibid, converted to K_{d(25)} and $\Delta G(25)$ using a $\Delta C_p$ of –0.96 kcal/mol° C.^-1 calculated from a T_m versus $\Delta H$ plot for all of the proteins as described herein. All thermal melts were reversible.
(§2) Table 1 presents the melting temperature (T_m,° C.), $\Delta G$ and k_d at 25° C. for CD thermal melts of a variety of proteins either as homodimers or an equimolar mixture of two proteins. […] The (L) denotes 'low' salt conditions (50 mM KCl, 25 mM Tris pH 8.0, 0.5 mM EDTA, 1 mM DTT) and the (H) denotes regular salt conditions (12.5 mM potassium phosphate, pH 7.4, 150 mM KCl, 0.25 mM EDTA, and 0.5 mM DTT). The latter conditions were used in Table 2. "0heptad-F" represents the F zipper with the basic region deleted. The RMS error in $\Delta G$ is 0.2 kcal/mol and 0.5 kcal/mol for homo- and heterodimers respectively.

[2] = biological target: the molecule itself; assay: CD thermal melt, homodimer, 150 mM KCl
Description: as §1, §2

[3] = biological target: the molecule itself; assay: from thermal melts of FIG. 4, Kd at 37 C
CREB (unmodified) [4] = biological target: T1, CREB (unmodified); assay: thermal melt of the mixture (FIG. 3)
[5] = biological target: B12; assay: thermal stability as heterodimers with C/EBP
[6] = biological target: B1; assay: CD thermal melt, equimolar mixture, 150 mM KCl
Description: as §2
(§3) The two chimeras were mixed with the four different length acidic extensions appended to the F zipper and their stability was determined from CD thermal melts.

[7] = biological target: B15; assay: CD thermal melt, equimolar mixture, 150 mM KCl
Description: as §2, §3

[8] = biological target: B12; assay: CD thermal melt, equimolar mixture, 150 mM KCl
Description: as §2, §3

[9] = biological target: B1; assay: CD thermal melt, equimolar mixture, 150 mM KCl, Kd at 25 C
Description: as §2, §3

[10] = biological target: B15; assay: as above
Description: as §2, §3

[11] = biological target: B12; assay: as above
Description: as §2, §3

[12] = biological target: the molecule itself; assay: homodimer, dimerization study of FIG. 9
c-Myc bHLH protein = c-Myc bHLH protein (murine, UniProt P01108 368-454); assay: heterodimer with c-Myc, dimerization study of FIG. 9
c-Jun (unmodified) [13] = biological target: B2; assay: from thermal melts of FIG. 4, Kd at 37 C
c-Jun (unmodified) [14] = biological target: B2; assay: thermal melt of the mixture (FIG. 4)
[15] = biological target: B12; assay: CD thermal melt, equimolar mixture, 150 mM KCl
Description: as §1, §2

[16] = biological target: the molecule itself; assay: CD thermal melt, homodimer, 150 mM KCl, Kd at 25 C; remark: listed apart in the source
Description: as §1, §2

[17] = biological target: B12; assay: CD thermal melt, equimolar mixture, 150 mM KCl, Kd at 25 C
Description: as §1, §2

[18] = biological target: the molecule itself; assay: CD thermal melt, homodimer, low salt (50 mM KCl), Kd at 25 C
Description: as §1, §2

[19] = biological target: B1; assay: thermal melt of the mixture (FIG. 1)
[20] = biological target: B15; assay: thermal melt of the mixture (FIG. 1)
[21] = biological target: B12; assay: thermal melt of the mixture (FIG. 1)
[22] = biological target: B1; assay: CD thermal melts
[23] = biological target: B15; assay: CD thermal melts
[24] = biological target: B12; assay: CD thermal melts
CREB (unmodified) [25] = biological target: T1, CREB (unmodified); assay: thermal melt, CREB with 4heptadCREB (FIG. 3)

c-Myc bHLH protein, sequence (P01108 368-454 limits assumed, form in doubt): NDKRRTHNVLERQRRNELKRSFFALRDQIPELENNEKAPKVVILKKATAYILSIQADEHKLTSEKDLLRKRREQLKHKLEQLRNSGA

With B1 the Kd [1] was 8 nM and the “deltaG at 25 C” value [2] was -11.1 kcal/mol.

For B2, the Kd [3] was 20000 nM.

For B3, the Tm (CREB (unmodified) [4]) was 69.5 °C.

For B4, the “fold stability against the DP-GGG cap” value [5] was 3 fold.

In the case of B5, the Tm [6] is reported as 62.8 °C, the “deltaG at 25 C” value [6] is reported as -13.8 kcal/mol and the Tm [7] is reported as 63.1 °C. The “deltaG at 25 C” value [7] was -13.6 kcal/mol, the Tm [8] was 63.6 °C and the “deltaG at 25 C” value [8] was -13.9 kcal/mol. For the same binder, the Kd [9] was 0.09 nM, the Kd [10] was 0.1 nM and the Kd [11] was 0.07 nM. The Kd [1] was 4000 nM and the “deltaG at 25 C” value [2] was -7.4 kcal/mol.

In the case of B6, the Kd [12] is reported as 30 nM and the Kd (c-Myc bHLH protein) is reported as 0.002 nM.

For B7, the Tm [8] was 61 °C, the “deltaG at 25 C” value [8] was -12.6 kcal/mol and the Kd [11] was 0.6 nM.

For B8, the Kd (c-Jun (unmodified) [13]) was 200 nM and the Tm (c-Jun (unmodified) [14]) was 50 °C.

B9 was tested, and the Tm [6] was 55.1 °C, the “deltaG at 25 C” value [6] was -12.2 kcal/mol and the Tm [7] was 55.7 °C. For the same binder, the “deltaG at 25 C” value [7] was -11.9 kcal/mol, the Tm [8] was 55.4 °C and the “deltaG at 25 C” value [8] was -11.8 kcal/mol. The Kd [9] was 1 nM, the Kd [10] was 2 nM and the Kd [11] was 3 nM. The Tm [15] was 55.4 °C, the Kd [1] was 1000 nM and the Kd [16] was 2000 nM. The “deltaG at 25 C” value [2] was -8 kcal/mol and the Kd [17] was 3 nM.

For B10, the Kd [12] was 100 nM.

For B11, the “fold stability against the DP-GGG cap” value [5] was 3 fold.

Binder B12 has a Kd [18] of 30 nM, a Kd [1] of 10 nM and a Kd [16] of 10 nM. For the same binder, the “deltaG at 25 C” value [2] was -10.9 kcal/mol.

In the case of B13, the Tm [6] is reported as 65.2 °C, the “deltaG at 25 C” value [6] is reported as -14.8 kcal/mol and the Tm [7] is reported as 65 °C. The “deltaG at 25 C” value [7] was -14.5 kcal/mol, the Tm [8] was 64.8 °C and the “deltaG at 25 C” value [8] was -14.2 kcal/mol. The Kd [9] was 0.01 nM, the Kd [10] was 0.03 nM and the Kd [11] was 0.04 nM. For the same binder, the Kd [1] was 20000 nM, the “melting temperature (given as ellipticity)” value (“melting temperature” for short) [19] was 65 °C and the “melting temperature” value [20] was 65 °C. For the same binder, the “melting temperature” value [21] was 65 °C and the “deltaG at 25 C” value [2] was -6.3 kcal/mol.

For B14, the Tm (c-Jun (unmodified) [14]) was 72 °C.

B15 was tested, and the Kd [1] was 20 nM and the “deltaG at 25 C” value [2] was -10.6 kcal/mol.

For B16, the Tm [6] was 60.5 °C, the “deltaG at 25 C” value [6] was -13.1 kcal/mol and the Tm [7] was 62 °C. The “deltaG at 25 C” value [7] was -13.2 kcal/mol, the Tm [8] was 60.8 °C and the “deltaG at 25 C” value [8] was -13.5 kcal/mol. The Kd [9] was 0.3 nM, the Kd [10] was 0.2 nM and the Kd [11] was 0.1 nM. For the same binder, the Kd [1] was 1000 nM, the “stabilization against 0heptad-F” value [22] was 0.9 kcal/mol and the “stabilization against 0heptad-F” value [23] was 1.3 kcal/mol. The “stabilization against 0heptad-F” value [24] was 1.7 kcal/mol and the “deltaG at 25 C” value [2] was -8 kcal/mol.

Work on B17 yielded a Tm (CREB (unmodified) [25]) of 53 °C.
